From patent publication EP0662093B1 come the findings set out here.

The target in experiment [1] is peptide aa 302-316 of HIV-1MN gp120 (HIV-1 strain MN). Put plainly: ELISA on coated peptide (250 ng/well); 500ng MIgG.
The target in experiment [2] is peptide aa 312-326 of HIV-1MN gp120 (HIV-1 strain MN). Put plainly: ELISA on coated peptide (250 ng/well); 500ng MIgG. (ELISA stands for enzyme-linked immunosorbent assay.)
Experiment [3] addresses peptide aa 322-336 of HIV-1MN gp120 (HIV-1 strain MN). Put plainly: ELISA on coated peptide (250 ng/well); 500ng MIgG.
For experiment [4], the target named is HIV-1 RF gp120 (HIV-1 strain RF) (UniProt P04579). Put plainly: cell-based or functional assay.
The target of experiment [5] is native HIV-1IIIB gp120 (HIV-1 strain IIIB) (UniProt P04578). Put plainly: cell-based or functional assay.
The target of experiment [6] is native HIV-1MN gp120 (HIV-1 strain MN) (UniProt P05877). Put plainly: cell-based or functional assay.
The target in experiment [7] is peptide aa 302-316 of HIV-1MN gp120 (HIV-1 strain MN). Put plainly: ELISA on coated peptide (250 ng/well); 19.0ng antibody.
Experiment [8] deals with peptide aa 312-326 of HIV-1MN gp120 (HIV-1 strain MN). The description is as above.
Experiment [9] concerns the target peptide aa 322-336 of HIV-1MN gp120 (HIV-1 strain MN). The experiment is described as above.
For experiment [10], the target named is peptide aa 302-316 of HIV-1MN gp120 (HIV-1 strain MN). Put plainly: ELISA on coated peptide (250 ng/well); 4.75ng antibody.
Experiment [11] concerns the target peptide aa 312-326 of HIV-1MN gp120 (HIV-1 strain MN). The description is as above.
The target of experiment [12] is peptide aa 322-336 of HIV-1MN gp120 (HIV-1 strain MN). The description is as above.
Experiment [13] concerns the target peptide aa 302-316 of HIV-1MN gp120 (HIV-1 strain MN). Put plainly: ELISA on coated peptide (250 ng/well); 9.50ng antibody.
For experiment [14], the target named is peptide aa 312-326 of HIV-1MN gp120 (HIV-1 strain MN). The description is as above.
Experiment [15] concerns the target peptide aa 322-336 of HIV-1MN gp120 (HIV-1 strain MN). Described as above.
In experiment [16] the target is native HIV-1MN gp120 (HIV-1 strain MN) (UniProt P05877). Put plainly: radioimmunoassay of hybridoma supernatant on HIV-1MN-infected against uninfected H9 cells.
Experiment [17] has the same target. Put plainly: ELISA of hybridoma supernatant on membranes of HIV-1MN-infected against uninfected H9 cells.

Sequence of UniProt P04579 (P04579 32-519 limits assumed): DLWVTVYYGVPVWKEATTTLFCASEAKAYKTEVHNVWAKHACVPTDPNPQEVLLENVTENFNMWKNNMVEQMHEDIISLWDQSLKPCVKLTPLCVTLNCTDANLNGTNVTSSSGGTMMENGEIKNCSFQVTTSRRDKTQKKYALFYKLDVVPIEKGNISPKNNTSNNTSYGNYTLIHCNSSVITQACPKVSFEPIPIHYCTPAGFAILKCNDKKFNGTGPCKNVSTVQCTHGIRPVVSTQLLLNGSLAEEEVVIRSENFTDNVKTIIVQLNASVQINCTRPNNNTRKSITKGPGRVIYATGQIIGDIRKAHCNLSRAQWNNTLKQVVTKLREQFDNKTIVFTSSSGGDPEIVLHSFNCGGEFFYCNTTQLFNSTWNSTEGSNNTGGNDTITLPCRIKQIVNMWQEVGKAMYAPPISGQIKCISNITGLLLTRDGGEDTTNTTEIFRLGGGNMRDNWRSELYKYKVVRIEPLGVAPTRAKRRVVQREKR

With mouse IgG (antibody), the Optical density at 650nm in [1] is 0.049 OD 650nm; in [2], 0.043 OD 650nm; in experiment [3], 0.042 OD 650nm.

With monoclonal antibody NM-01, in experiment [4], the ID50, inhibition of live RF virus, RT assay came out at 0.05 µg/mL; the ID50, inhibition of syncytium formation by RF-infected cells turned out to be 4 µg/mL; the percent inhibition of syncytium formation by RF-infected cells at 25 µg antibody was found to be 59%. In experiment [5], the ID50, inhibition of syncytium formation by IIIB-infected H9 cells with C8166 cells came to 3 µg/mL; the ID50, neutralization of live IIIB isolate, MT-2 assay is 0.1 µg/mL; the ID50, neutralization of live IIIB virus, RT assay was 0.1 µg/mL; the ID50, neutralization of live IIIB virus, RT assay (run with F58/H3 and P4/D10) was 0.1 µg/mL. Also, the percent inhibition of syncytium formation by IIIB-infected cells at 25 µg antibody in [5] was determined as 85%. In experiment [6], this substance showed a 50% inhibition of viral infectivity (ID50), live MN virus, RT assay of less than 1 µg/mL; a 50% inhibition of viral infectivity (ID50), live MN virus, RT assay (run with F58/H3 and P4/D10) of less than 1 µg/mL; an ID50, inhibition of syncytium formation by MN-infected H9 cells with C8166 cells of 2 µg/mL; an ID50, neutralization of live MN isolate, MT-2 assay of 2 µg/mL. In [6], this substance had a percent inhibition of syncytium formation by MN-infected cells at 25 µg antibody of 85%. The Optical density at 650nm in experiment [7] stood at 0.024 OD 650nm. The Optical density at 650nm in [8] is 1.14 OD 650nm. This substance gave an Optical density at 650nm in experiment [9] of 0.03 OD 650nm. This substance came in with an Optical density at 650nm in [10] of 0.024 OD 650nm. Moreover, the Optical density at 650nm in experiment [11] stood at 0.781 OD 650nm. In experiment [12], the Optical density at 650nm was determined as 0.03 OD 650nm. In addition, in experiment [13], the Optical density at 650nm came out at 0.024 OD 650nm. This substance also came in with an Optical density at 650nm in experiment [14] of 0.827 OD 650nm. In [15], the Optical density at 650nm is 0.028 OD 650nm. Besides, in experiment [16], the Ratio cpm inf/cpm uninf (RIA) stood at 9.81. In experiment [17], the ratio infected/uninfected (ELISA, Run 1) worked out at 5.76.
